Publication doi:10.1101/709485 (bioRxiv, 2019)
Non-standard residues stand in square brackets, D forms with d. No end group written: not given here. pT = C[C@@H](OP(=O)(O)O)[C@H](N)C(=O)O

Experiments:
[1] = biological target: SUMO2 (UniProt P61956)
[2] = biological target: SUMO2 (UniProt P61956); assay: NMR titration
[3] = biological target: SUMO1 (UniProt P63165); assay: NMR titration
[4] = biological target: Chk2-FHA domain (aa:64-212) (UniProt O96017 64-212); assay: ITC
Chain of Chk2-FHA domain (aa:64-212) (O96017 64-212): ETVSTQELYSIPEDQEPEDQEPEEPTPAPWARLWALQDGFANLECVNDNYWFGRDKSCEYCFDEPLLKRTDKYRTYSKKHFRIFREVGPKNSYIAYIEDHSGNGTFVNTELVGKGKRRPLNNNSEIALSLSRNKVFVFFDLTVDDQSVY

Chain of SUMO1 (P63165 1-97): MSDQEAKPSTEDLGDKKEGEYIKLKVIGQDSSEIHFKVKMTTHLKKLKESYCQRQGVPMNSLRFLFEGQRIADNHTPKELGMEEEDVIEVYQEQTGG

Molecule	Kd [2] [µM]	Kd [3] [µM]	other results
ICP0pm (phosphomimetic full-length ICP0, Ser365 and Ser367 mutated to aspartic acids) (from UniProt P08393 1-775) (enzyme)	–	–	STUbL activity on SUMOylated FLAG-PMLs, against ICP0 (fold (against ICP0)) [1]: 5
SLS4 peptide of ICP0	81	128	–
pSLS4 peptide of ICP0 (SLS4 phosphorylated at Ser365)	7	16	–
ppSLS4 peptide of ICP0 (SLS4 phosphorylated at Ser365 and Ser367)	3	5	–
DDDSASEADSTD[pT]ELFETGL [ICP0-FBM peptide, phosphorylated at Thr67 (FHA Binding Motif, aa: 55-74)]	–	–	Kd [4]: 0.75 ± 0.05 µM; dH [4]: -5.8 ± 0.1 kcal/mol; stoichiometry N [4]: 1.23
